Assay results reported in patent publication US20240066131A1 (Protagonist Therapeutics, Inc., priority 2020, published 2024).
Starred links: 1 amine or outer side, 2 acyl side, 3 side chain; linkers in the order of their positions; H or OH if unused. Non-standard residues stand in square brackets, D forms with d. Groups on a side chain read outwards from the residue. No end group written: not given here. *: point of attachment. N_Butyl_Phe = CCCCN([C@@H](Cc1ccccc1)C(=O)[*:2])[*:1]; C18 diacid = O=C(O)CCCCCCCCCCCCCCCCC(=O)*; Dip = N[C@H](C(=O)O)C(c1ccccc1)c1ccccc1; γGlu = O=C(O)[C@H](CCC(=O)[*:2])N[*:1]; Palmitoyl = CCCCCCCCCCCCCCCC(=O)*; β3hF = N[C@H](CC(=O)O)Cc1ccccc1; Isovaleryl = CC(C)CC(=O)*; AEEA = NCCOCCOCC(=O)O; Ahx = NCCCCCC(=O)O; NHPr = CCCN*

T1: human ferroportin (SLC40A1) fused in frame with GFP, stably expressed in HEK293 cells (human, UniProt Q9NP59 1-571)
T1 sequence (looked up): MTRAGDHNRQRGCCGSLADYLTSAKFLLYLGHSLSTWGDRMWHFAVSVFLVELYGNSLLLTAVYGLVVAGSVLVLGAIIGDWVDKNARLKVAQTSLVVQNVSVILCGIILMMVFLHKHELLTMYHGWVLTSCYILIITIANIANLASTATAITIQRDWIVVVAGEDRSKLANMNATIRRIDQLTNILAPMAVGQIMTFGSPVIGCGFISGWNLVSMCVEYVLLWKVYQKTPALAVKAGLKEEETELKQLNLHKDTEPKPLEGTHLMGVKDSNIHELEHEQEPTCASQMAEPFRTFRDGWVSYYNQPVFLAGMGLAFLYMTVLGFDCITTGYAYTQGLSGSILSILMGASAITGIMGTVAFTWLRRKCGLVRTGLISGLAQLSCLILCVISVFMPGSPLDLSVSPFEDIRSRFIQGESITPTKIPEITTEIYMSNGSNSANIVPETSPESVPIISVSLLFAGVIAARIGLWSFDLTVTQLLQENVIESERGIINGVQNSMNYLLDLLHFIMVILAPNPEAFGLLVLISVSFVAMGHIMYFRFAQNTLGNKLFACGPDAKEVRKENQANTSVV


Biological target: T1, human ferroportin (SLC40A1) fused in …
Assay: cell-based or functional assay

| Binder | FPN IC50 [µM] |
| --- | --- |
| Isovaleryl-LTH[Dip]PK([AEEA-AEEA-γGlu-C18 diacid])[β3hF]-NH2 (SMILES CC(C)CC(=O)N[C@@H](CC(C)C)C(=O)N[C@H](C(=O)N[C@@H](Cc1c[nH]cn1)C(=O)N[C@H](C(=O)N1CCC[C@H]1C(=O)N[C@@H](CCCCNC(=O)COCCOCCNC(=O)COCCOCCNC(=O)CC[C@H](NC(=O)CCCCCCCCCCCCCCCCC(=O)O)C(=O)O)C(=O)N[C@H](CC(N)=O)Cc1ccccc1)C(c1ccccc1)c1ccccc1)[C@@H](C)O) [Isovaleric Acid-L-T-H-[Dpa]-P-[Lys(1PEG2_1PEG2_IsoGlu_C18_Diacid)]-[bhPhe]-NH2] | 0.482 |
| Isovaleryl-LTH[Dip]K([AEEA-AEEA-γGlu-C18 diacid])[N_Butyl_Phe] [Isovaleric Acid-L-T-H-[Dpa]-[Lys(1PEG2_1PEG2_IsoGlu_C18_Diacid)]-N_Butyl Phe] | > 3 |
| Isovaleryl-LTH[Dip]K([AEEA-AEEA-γGlu-C18 diacid])-Benzyl_Amine [Isovaleric Acid-L-T-H-[Dpa]-[Lys(1PEG2_1PEG2_IsoGlu_C18_Diacid)]-Benzyl_Amine] | > 3 |
| XETHXPXX (N-term Isovaleric Acid; Dpa4; Lys(1PEG2_1PEG2_IsoGlu_C18_Diacid)6; C-term Propyl_Amine) [Isovaleric Acid-E-T-H-[Dpa]-P-[Lys(1PEG2_1PEG2_IsoGlu_C18_Diacid)]-Propyl_Amine] | 0.47 |
| Isovaleryl-LTH[Dip]PK([Ahx-Palmitoyl])[N_Ethyl_Phe] [Isovaleric Acid-L-T-H-[Dpa]-P-[Lys(Ahx_Palm)]-N_Ethyl_Phe] | 0.0183 |
| Isovaleryl-LTH[Dip]PK([Ahx-Palmitoyl])[N_Butyl_Phe] [Isovaleric Acid-L-T-H-[Dpa]-P-[Lys(Ahx_Palm)]-N_Butyl_Phe] | 0.074 |
| XETHXPXX (N-term Isovaleric Acid; Dpa4; Lys(1PEG2_1PEG2_IsoGlu_C18_Diacid)6; C-term N_Butyl_Phe) [Isovaleric Acid-E-T-H-[Dpa]-P-[Lys(1PEG2_1PEG2_IsoGlu_C18_Diacid)]-N_Butyl_Phe] | 0.448 |

Further lines, results first:

| FPN IC50 [µM] | Binder |
| --- | --- |
| > 3 | Isovaleryl-LTH[Dip]K([AEEA-AEEA-γGlu-C18 diacid])-NHPr (SMILES CCCNC(=O)[C@H](CCCCNC(=O)COCCOCCNC(=O)COCCOCCNC(=O)CC[C@H](NC(=O)CCCCCCCCCCCCCCCCC(=O)O)C(=O)O)NC(=O)[C@@H](NC(=O)[C@H](Cc1c[nH]cn1)NC(=O)[C@@H](NC(=O)[C@H](CC(C)C)NC(=O)CC(C)C)[C@@H](C)O)C(c1ccccc1)c1ccccc1) [Isovaleric Acid-L-T-H-[Dpa]-[Lys(1PEG2_1PEG2_IsoGlu_C18_Diacid)]-Propyl_Amine] |
| 0.0873 | Isovaleryl-LTH[Dip]PK([Ahx-Palmitoyl])-NHPr [Isovaleric Acid-L-T-H-[Dpa]-P-[Lys(Ahx_Palm)]-Propyl_Amine] |
| 0.408 | XETHXPXX (N-term Isovaleric Acid; Dpa4; Lys(1PEG2_1PEG2_IsoGlu_C18_Diacid)6; C-term N_Ethyl_Phe) [Isovaleric Acid-E-T-H-[Dpa]-P-[Lys(1PEG2_1PEG2_IsoGlu_C18_Diacid)]-N_Ethyl_Phe] |
| 0.394 | Isovaleryl-LTH[Dip]P[dK]([AEEA-AEEA-γGlu-C18 diacid])[β3hF]-NH2 (SMILES CC(C)CC(=O)N[C@@H](CC(C)C)C(=O)N[C@H](C(=O)N[C@@H](Cc1c[nH]cn1)C(=O)N[C@H](C(=O)N1CCC[C@H]1C(=O)N[C@H](CCCCNC(=O)COCCOCCNC(=O)COCCOCCNC(=O)CC[C@H](NC(=O)CCCCCCCCCCCCCCCCC(=O)O)C(=O)O)C(=O)N[C@H](CC(N)=O)Cc1ccccc1)C(c1ccccc1)c1ccccc1)[C@@H](C)O) [Isovaleric Acid-L-T-H-[Dpa]-P-d[Lys(1PEG2_1PEG2_IsoGlu_C18_Diacid)]-[bhPhe]-NH2] |
| > 3 | Isovaleryl-LTH[Dip]K([AEEA-AEEA-γGlu-C18 diacid])[N_Ethyl_Phe] [Isovaleric Acid-L-T-H-[Dpa]-[Lys(1PEG2_1PEG2 IsoGlu_C18_Diacid)]-N_Ethyl Phe] |
